Consider three molecules from article PMC12687561 (2025).

The target of test [1] is T1, HHV-6B Large structural phosphoprotein (U11) peptide on HLA-DRA*01:01 / HLA-DRB1*03:01 (human).
T1 peptide: SLPSISIDTKRPSADL
The experiment in a line: multimer staining.

In test [2] the target is T2, HHV-6B Putative OX-2 membrane glycoprotein homolog (U85) peptide on HLA-DRA*01:01 / HLA-DRB1*03:01 (human).
T2 peptide: KINNLDVDSKLYFHIKH
The experiment in a line: multimer staining.

B1: U11.1 (TCR)
alpha TRAV12-1 TRAJ49 CDR3: CVVNIFTGNQFYF
beta TRBV19 TRBJ1-4 CDR3: CASSFRGGEKLFF
Consider B1, for which the binding result in test [1] is given as “recognises”.

B2: U85.2 (TCR)
alpha TRAV13-1 TRAJ29 CDR3: CAATNSGNTPLVF
beta TRBV20-1 TRBJ1-5 CDR3: CSARRGGGPQHF
For the molecule B2, the binding result in test [2] is recorded as “recognises”.

B3: U85.1 (TCR)
alpha TRAV13-1 TRAJ29 CDR3: CAASNSGNTPLVF
beta TRBV20-1 TRBJ1-6 CDR3: CGNRVGNSPLHF
Turning to B3, the binding result in test [2] is “recognises”.
